Abundance fitness data for 47 variants are collected here from the Human Domainome abundance scans (Beltran et al. 2025).

± gives the uncertainty stated by the source.

Sequences and labels used below:
B1: POU domain, class 3, transcription factor 3, residues 408 to 463; numbered along this chain, P20264 (parent)
chain: KKRTSIEVSVKGALESHFLKCPKPSAQEITNLADSLQLEKEVVRVWFCNRRQKEKR

In this data set the parent is B1. Put plainly: abundance fitness (aPCA) (normalised: wild type 0, dead -1); higher = more abundant; growth selection in yeast, the domain comes from the species named. The following applies: Homo sapiens.
With KKRTSIEVSVKGALESHFLKCPKPSAQEIHNLADSLQLEKEVVRVWFCNRRQKEKR [T30H], the abundance fitness is -0.153 ± 0.12.

As for KKRTSIEVSVKGALESHFLKCPKPSAQEIFNLADSLQLEKEVVRVWFCNRRQKEKR [T30F], the abundance fitness was -0.082 ± 0.12.

Turning to KKRTSIEVSVKGALESHFLKCPKPSAQEINNLADSLQLEKEVVRVWFCNRRQKEKR [T30N], the abundance fitness is -0.095 ± 0.099.

KKRTSIEVSVKGALESHFLKCPKPSAQEIQNLADSLQLEKEVVRVWFCNRRQKEKR [T30Q]: the abundance fitness is 0.079 ± 0.11.

On to KKRTSIEVSVKGALESHFLKCPKPSAQEIENLADSLQLEKEVVRVWFCNRRQKEKR [T30E], for which the abundance fitness is -0.107 ± 0.11.

KKRTSIEVSVKGALESHFLKCPKPSAQEIANLADSLQLEKEVVRVWFCNRRQKEKR [T30A]: the abundance fitness is -0.028 ± 0.077.

Turning to KKRTSIEVSVKGALESHFLKCPKPSAQEIRNLADSLQLEKEVVRVWFCNRRQKEKR [T30R], the abundance fitness was -0.17 ± 0.066.

With KKRTSIEVSVKGALESHFLKCPKPSAQEIDNLADSLQLEKEVVRVWFCNRRQKEKR [T30D], the abundance fitness was 0.048 ± 0.1.

On to KKRTSIEVSVKGALESHFLKCPKPSAQEIINLADSLQLEKEVVRVWFCNRRQKEKR [T30I], for which the abundance fitness was -0.035 ± 0.099.

Consider KKRTSIEVSVKGALESHFLKCPKPSAQEIKNLADSLQLEKEVVRVWFCNRRQKEKR [T30K], for which the abundance fitness was -0.044 ± 0.1.

For KKRTSIEVSVKGALESHFLKCPKPSAQEIGNLADSLQLEKEVVRVWFCNRRQKEKR [T30G], the abundance fitness is -0.072 ± 0.062.

With KKRTSIEVSVKGALESHFLKCPKPSAQEICNLADSLQLEKEVVRVWFCNRRQKEKR [T30C], the abundance fitness is -0.037 ± 0.12.

For KKRTSIEVSVKGALESHFLKCPKPSAQEISNLADSLQLEKEVVRVWFCNRRQKEKR [T30S], the abundance fitness is 0.031 ± 0.071.

Take KKRTSIEVSVKGALESHFLKCPKPSAQEIPNLADSLQLEKEVVRVWFCNRRQKEKR [T30P]: the abundance fitness is -0.847 ± 0.14.

For the variant KKRTSIEVSVKGALESHFLKCPKPSAQEIMNLADSLQLEKEVVRVWFCNRRQKEKR [T30M], the abundance fitness was -0.057 ± 0.095.

For the variant KKRTSIEVSVKGALESHFLKCPKPSAQESTNLADSLQLEKEVVRVWFCNRRQKEKR [I29S], the abundance fitness was -0.781 ± 0.15.

With KKRTSIEVSVKGALESHFLKCPKPSAQEPTNLADSLQLEKEVVRVWFCNRRQKEKR [I29P], the abundance fitness was -0.871 ± 0.21.

Consider KKRTSIEVSVKGALESHFLKCPKPSAQERTNLADSLQLEKEVVRVWFCNRRQKEKR [I29R], for which the abundance fitness was -0.859 ± 0.097.

As to KKRTSIEVSVKGALESHFLKCPKPSAQEGTNLADSLQLEKEVVRVWFCNRRQKEKR [I29G], the abundance fitness is -0.899 ± 0.099.

Consider KKRTSIEVSVKGALESHFLKCPKPSAQETTNLADSLQLEKEVVRVWFCNRRQKEKR [I29T], for which the abundance fitness was -0.849 ± 0.19.

For KKRTSIEVSVKGALESHFLKCPKPSAQEKTNLADSLQLEKEVVRVWFCNRRQKEKR [I29K], the abundance fitness was -1.07 ± 0.17.

Take KKRTSIEVSVKGALESHFLKCPKPSAQEETNLADSLQLEKEVVRVWFCNRRQKEKR [I29E]: the abundance fitness is -0.301 ± 0.11.

As to KKRTSIEVSVKGALESHFLKCPKPSAQEHTNLADSLQLEKEVVRVWFCNRRQKEKR [I29H], the abundance fitness was -0.997 ± 0.41.

In the case of KKRTSIEVSVKGALESHFLKCPKPSAQEWTNLADSLQLEKEVVRVWFCNRRQKEKR [I29W], the abundance fitness is -0.903 ± 0.14.

Take KKRTSIEVSVKGALESHFLKCPKPSAQEQTNLADSLQLEKEVVRVWFCNRRQKEKR [I29Q]: the abundance fitness was -0.822 ± 0.15.

In the case of KKRTSIEVSVKGALESHFLKCPKPSAQEMTNLADSLQLEKEVVRVWFCNRRQKEKR [I29M], the abundance fitness was -0.028 ± 0.11.

As for KKRTSIEVSVKGALESHFLKCPKPSAQEDTNLADSLQLEKEVVRVWFCNRRQKEKR [I29D], the abundance fitness was -0.871 ± 0.24.

For KKRTSIEVSVKGALESHFLKCPKPSAQENTNLADSLQLEKEVVRVWFCNRRQKEKR [I29N], the abundance fitness is -0.982 ± 0.26.

As to KKRTSIEVSVKGALESHFLKCPKPSAQEVTNLADSLQLEKEVVRVWFCNRRQKEKR [I29V], the abundance fitness is -0.204 ± 0.08.

KKRTSIEVSVKGALESHFLKCPKPSAQEYTNLADSLQLEKEVVRVWFCNRRQKEKR [I29Y]: the abundance fitness is -0.889 ± 0.23.

Turning to KKRTSIEVSVKGALESHFLKCPKPSAQEFTNLADSLQLEKEVVRVWFCNRRQKEKR [I29F], the abundance fitness was -0.832 ± 0.2.

Turning to KKRTSIEVSVKGALESHFLKCPKPSAQELTNLADSLQLEKEVVRVWFCNRRQKEKR [I29L], the abundance fitness was -0.038 ± 0.08.

In the case of KKRTSIEVSVKGALESHFLKCPKPSAQECTNLADSLQLEKEVVRVWFCNRRQKEKR [I29C], the abundance fitness was -0.574 ± 0.14.

As for KKRTSIEVSVKGALESHFLKCPKPSAQTITNLADSLQLEKEVVRVWFCNRRQKEKR [E28T], the abundance fitness is -0.251 ± 0.13.

As to KKRTSIEVSVKGALESHFLKCPKPSAQPITNLADSLQLEKEVVRVWFCNRRQKEKR [E28P], the abundance fitness was -0.838 ± 0.13.

Consider KKRTSIEVSVKGALESHFLKCPKPSAQFITNLADSLQLEKEVVRVWFCNRRQKEKR [E28F], for which the abundance fitness was -0.573 ± 0.15.

For KKRTSIEVSVKGALESHFLKCPKPSAQNITNLADSLQLEKEVVRVWFCNRRQKEKR [E28N], the abundance fitness was -0.455 ± 0.19.

As for KKRTSIEVSVKGALESHFLKCPKPSAQGITNLADSLQLEKEVVRVWFCNRRQKEKR [E28G], the abundance fitness is -0.237 ± 0.067.

Take KKRTSIEVSVKGALESHFLKCPKPSAQIITNLADSLQLEKEVVRVWFCNRRQKEKR [E28I]: the abundance fitness was -0.223 ± 0.26.

KKRTSIEVSVKGALESHFLKCPKPSAQVITNLADSLQLEKEVVRVWFCNRRQKEKR [E28V]: the abundance fitness is -0.442 ± 0.084.

Turning to KKRTSIEVSVKGALESHFLKCPKPSAQRITNLADSLQLEKEVVRVWFCNRRQKEKR [E28R], the abundance fitness was -0.456 ± 0.069.

For the variant KKRTSIEVSVKGALESHFLKCPKPSAQQITNLADSLQLEKEVVRVWFCNRRQKEKR [E28Q], the abundance fitness is -0.145 ± 0.15.

As to KKRTSIEVSVKGALESHFLKCPKPSAQKITNLADSLQLEKEVVRVWFCNRRQKEKR [E28K], the abundance fitness is -0.538 ± 0.13.

Consider KKRTSIEVSVKGALESHFLKCPKPSAQSITNLADSLQLEKEVVRVWFCNRRQKEKR [E28S], for which the abundance fitness was -0.45 ± 0.09.

In the case of KKRTSIEVSVKGALESHFLKCPKPSAQHITNLADSLQLEKEVVRVWFCNRRQKEKR [E28H], the abundance fitness is -0.554 ± 0.25.

With KKRTSIEVSVKGALESHFLKCPKPSAQYITNLADSLQLEKEVVRVWFCNRRQKEKR [E28Y], the abundance fitness is -0.048 ± 0.18.

KKRTSIEVSVKGALESHFLKCPKPSAQWITNLADSLQLEKEVVRVWFCNRRQKEKR [E28W]: the abundance fitness is -0.59 ± 0.1.
